Reference: article PMC8011160

Legend:
[1] = target: collagen Type I (purified from rat tail) (rat), P02454; assay: ELISA; host protein coated on microtiter wells; recombinant protein varied from 0 to 2 μM; absorbance with BSA subtracted; apparent Kd from the half-maximal binding concentration (GraphPad Prism 6); conditions: remark: other sources report otherwise
[2] = target: T1, fibrinogen (purified from human plasma) (human), P02671; assay: as above; conditions: remark: other sources report otherwise
T1 chain 1: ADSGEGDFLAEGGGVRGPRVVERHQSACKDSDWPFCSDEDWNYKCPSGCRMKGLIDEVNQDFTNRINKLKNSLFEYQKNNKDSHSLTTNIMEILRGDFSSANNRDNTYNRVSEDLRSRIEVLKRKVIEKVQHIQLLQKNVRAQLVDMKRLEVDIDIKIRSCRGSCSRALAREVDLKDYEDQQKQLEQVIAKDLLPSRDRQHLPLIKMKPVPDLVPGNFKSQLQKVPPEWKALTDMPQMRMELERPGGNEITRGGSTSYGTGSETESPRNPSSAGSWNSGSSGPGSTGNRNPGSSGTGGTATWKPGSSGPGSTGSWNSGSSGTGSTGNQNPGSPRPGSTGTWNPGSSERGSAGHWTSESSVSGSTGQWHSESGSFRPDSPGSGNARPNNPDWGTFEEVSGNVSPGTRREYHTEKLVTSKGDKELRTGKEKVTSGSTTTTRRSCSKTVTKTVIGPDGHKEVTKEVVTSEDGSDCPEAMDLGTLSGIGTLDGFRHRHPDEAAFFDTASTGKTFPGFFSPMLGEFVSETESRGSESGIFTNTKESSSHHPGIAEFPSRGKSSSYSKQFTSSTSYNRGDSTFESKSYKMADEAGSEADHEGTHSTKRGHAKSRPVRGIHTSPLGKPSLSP
T1 chain 2: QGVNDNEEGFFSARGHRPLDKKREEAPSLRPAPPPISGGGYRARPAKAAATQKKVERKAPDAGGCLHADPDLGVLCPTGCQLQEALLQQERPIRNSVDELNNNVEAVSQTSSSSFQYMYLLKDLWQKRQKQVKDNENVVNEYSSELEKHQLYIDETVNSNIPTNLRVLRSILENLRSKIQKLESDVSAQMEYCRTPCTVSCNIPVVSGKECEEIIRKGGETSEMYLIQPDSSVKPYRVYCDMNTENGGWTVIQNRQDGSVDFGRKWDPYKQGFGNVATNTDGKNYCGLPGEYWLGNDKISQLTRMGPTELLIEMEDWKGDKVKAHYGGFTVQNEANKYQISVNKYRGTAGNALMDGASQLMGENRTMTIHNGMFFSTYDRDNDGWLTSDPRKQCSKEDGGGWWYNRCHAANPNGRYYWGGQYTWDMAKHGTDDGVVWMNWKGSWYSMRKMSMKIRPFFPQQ
T1 chain 3: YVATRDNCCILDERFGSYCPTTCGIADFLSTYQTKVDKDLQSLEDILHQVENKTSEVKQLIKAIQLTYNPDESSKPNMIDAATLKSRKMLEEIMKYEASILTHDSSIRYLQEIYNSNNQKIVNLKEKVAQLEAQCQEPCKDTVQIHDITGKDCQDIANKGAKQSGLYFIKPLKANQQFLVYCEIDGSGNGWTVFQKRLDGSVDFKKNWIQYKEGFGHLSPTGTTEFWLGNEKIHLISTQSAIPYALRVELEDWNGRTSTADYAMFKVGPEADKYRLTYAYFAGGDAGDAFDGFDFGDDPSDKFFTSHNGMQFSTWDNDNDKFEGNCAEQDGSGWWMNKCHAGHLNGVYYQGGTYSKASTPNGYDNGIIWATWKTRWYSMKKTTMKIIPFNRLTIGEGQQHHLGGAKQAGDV

B1: GroEL protein of Leptospira interrogans (recombinant, His-tagged), P61438 1-546 (natural protein)
chain: MAKDIEYNETARRKLLEGVNKLANAVKVTLGPKGRNVVIDKKFGAPTITKDGVTVAKEIELEDPLENMGAQMVKEVSTKTNDVAGDGTTTATILAQSIINEGLKNVTAGANPMSLKKGIDKAVTAAVESIQKRAVKIENKKDIANVASISANNDNTIGNLIADAMDKVGKDGVITVEEAKSIETTLDVVEGMQFDRGYISPYMVTDAESMVATLNDPFILIYDKKISSMKDLIHILEKVAQAGKPLVIISEEVEGEALATIVVNTLRKTISCVAVKAPGFGDRRKSMLEDIAILTGGQVISEDLGMKLENTTLQMLGRANKVTVDKENTTIIEGKGQTKEIQGRIGQIKKQIEDTTSEYDREKLQERLAKLAGGVAVIHVGAATEVEMKEKKARVEDALSATRAAVEEGIVPGGGLTLLKAQEAVGSLKLDGDEATGAKIIFRALEEPIRMITSNAGLEGSVIVEHAKAKKGNEGFNALTMVWEDMIQAGVVDPAKVVRSALQNAASIGSMILTTEVTITDKPDKDAPNPMAGMGGGGMGGMGGMM
[1]
  Kd: 11 nM
[2]
  Kd: 23 nM
